How the values were obtained:
[1] = molecular target: T1, Human FcRn, soluble single-chain fusion protein (B2M-(GGGGS)3-heavy chain without transmembrane domain-6xHis) (human, UniProt P61769 21-119; P55899 24-297); experiment: ELISA, FcRn coated on plate, pH 6.0
T1 construct: also called neonatal Fc receptor; hFcRn
Protocol: (§1) In vitro binding affinity assay. The binding affinity of the BChE fusion proteins corresponding to CocH3-Fc (SEQ ID NO: 9), CocH3-Fc(M6) (SEQ ID NO: 10), CocH3G-Fc(M3) (SEQ ID NO: 11), CocH3G-Fc(M4) (SEQ ID NO: 12), CocH3G-Fc(M6) (SEQ ID NO: 13), CocH5G-Fc(M3) (SEQ ID NO: 14), CocH5G-Fc(M4) (SEQ ID NO: 15), and CocH5G-Fc(M6) (SEQ ID NO: 16), BChE-Fc(M3) (SEQ ID NO: 17), BChE-Fc(M4) (SEQ ID NO: 18), and BChE-Fc(M6) (SEQ ID NO: 19) with FcRn was determined by using an enzyme-linked immunosorbent assay (ELISA). 400 ng of the 6×His-tagged FcRn in 100 μL 0.05 M PBS, pH 7.4, was immobilized in a 96-well flat-bottomed EIA plate (Corning) at 4° C. overnight (or 37° C. for 2 hours). At the same time, corresponding empty wells without FcRn coating were left as a negative control. The liquid was dumped from the plates and the rest was drained on a paper towel. Coated wells were blocked with blocking buffer (0.05 M PBS, pH 6.0, containing 1 mg/ml casein) (250 μL/well) at room temperature (RT) for 1 hour. After washing twice with washing buffer (0.05 M PBS, pH 6.0) (250 μL/well), 100 μL of BChE fusion protein diluted in blocking buffer, pH 6.0 was added to each well at a range of concentrations. The plate was then covered with an adhesive plastic and incubated, with continuous shaking, at RT for 1 hour. After washing three times with washing buffer, an enzyme horseradish peroxidase (HRP)-conjugated antibody (anti-human IgG-Fc Ab-HRP) (70 μL/well), diluted with blocking buffer at a ratio of 1:20,000, was added into each well and incubated at RT for 30 minutes on a shaker. The wells were then washed three times with washing buffer (250 μL/well) before 250 μL TMB substrate was added to the wells. The ELISA plate was kept in the dark until the desired color developed. The reaction was stopped with 100 μL of 0.5 M HCl. The absorbance (the developed blue color) was measured at 450 nm using a microplate reader. All measurements were performed in triplicate or quadruplicate.

[2] = molecular target: T1, Human FcRn, soluble single-chain fusion …; experiment: ELISA, FcRn coated on plate, pH 6.0; reference CocH3-Fc
Protocol: as §1, with “After washing three times with washing buffer, an enzyme horseradish peroxidase (HRP)-conjugated antibody (anti-human IgG-Fc Ab-HRP) (70 μL/well), diluted with blocking buffer at a ratio of 1:20,000, was added into each well and incubated at RT for 30 minutes on a shaker. The wells were then washed three times with washing buffer (250 μL/well) before 250 μL TMB substrate was added to the wells. The ELISA plate was kept in the dark until the desired color developed. The reaction was stopped with 100 μL of 0.5 M HCl.” left out, “All measurements were performed in triplicate or quadruplicate.” left out

[3] = molecular target: T1, Human FcRn, soluble single-chain fusion …; experiment: ELISA, FcRn coated on plate, pH 6.0, anti-human IgG-Fc-HRP detection
Protocol: as §1, with “After washing three times with washing buffer, an enzyme horseradish peroxidase (HRP)-conjugated antibody (anti-human IgG-Fc Ab-HRP) (70 μL/well), diluted with blocking buffer at a ratio of 1:20,000, was added into each well and incubated at RT for 30 minutes on a shaker. The wells were then washed three times with washing buffer (250 μL/well) before 250 μL TMB substrate was added to the wells. The ELISA plate was kept in the dark until the desired color developed. The reaction was stopped with 100 μL of 0.5 M HCl.” left out, “All measurements were performed in triplicate or quadruplicate.” left out

T1 sequence (P61769 other isoform, or with tags, fused parts or gaps limits assumed): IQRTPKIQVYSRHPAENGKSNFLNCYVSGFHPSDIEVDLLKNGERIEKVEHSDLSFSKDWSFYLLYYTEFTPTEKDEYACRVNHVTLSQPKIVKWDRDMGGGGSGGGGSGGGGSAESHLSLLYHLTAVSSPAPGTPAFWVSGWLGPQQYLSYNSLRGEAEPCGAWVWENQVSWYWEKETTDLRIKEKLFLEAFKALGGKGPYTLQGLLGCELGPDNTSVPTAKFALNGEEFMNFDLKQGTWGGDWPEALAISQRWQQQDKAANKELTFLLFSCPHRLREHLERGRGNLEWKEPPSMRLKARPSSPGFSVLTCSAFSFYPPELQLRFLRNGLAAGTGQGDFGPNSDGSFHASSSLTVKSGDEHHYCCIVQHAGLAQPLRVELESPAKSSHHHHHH

| Binder | Kd [1] [nM] | fold improvement in binding affinity against CocH3-Fc [2] [fold] | Kd [3] [nM] |
| --- | --- | --- | --- |
| BChE-Fc(M6) (Fc fusion, Wild-type BChE fused to Fc(M6)) EDDIIIATKNGKVRGMNLTVFGGTVTAFLGIPYAQPPLGRLRFKKPQSLTKWSDIWNATKYANSCCQNIDQSFPGFHGSEMWNPNTDLSEDCLYLNVWIPAPKPKNATVLIWIYGGGFQTGTSSLHVYDGKFLARVERVIVVSMNYRVGALGFLALPGNPEAPGNMGLFDQQLALQWVQKNIAAFGGNPKSVTLFGESAGAASVSLHLLSPGSHSLFTRAILQSGSFNAPWAVTSLYEARNRTLNLAKLTGCSRENETEIIKCLRNKDPQEILLNEAFVVPYGTPLSVNFGPTVDGDFLTDMPDILLELGQFKKTQILVGVNKDEGTAFLVYGAPGFSKDNNSIITRKEFQEGLKIFFPGVSEFGKESILFHYTDWVDDQRPENYREALGDVVGDYNFICPALEFTKKFSEWGNNAFFYYFEHRSSKLPWPEWMGVMHGYEIEFVFGLPLERRDNYTKAEEILSRSIVKRWANFAKYGNPNETQNNSTSWPVFKSTEQKYLTLNTESTRIMTKLRAQQCRFWTSFFPKVVEPKSCDKTHTCPPCPAPELLGGPSVFLFPPKPKDTLYITREPEVTCVVVDVSHEDPEVKFNWYVDGVEVHNAKTKPREEQYNSTYRVVSVLTVLHQDWLNGKEYKCKVSNKALPAPIEKTISKAKGQPREPQVYTLPPSREEMTKNQVSLTCLVKGFYPSDIAVEWESNGQPENNYKTTPPVLDSDGSFFLYSKLTVDKSRWQQGNVFSCSVMHEALHNHYTQKSLSLSPGK | 40 |  |  |
| CocH3-Fc(M6) (Fc fusion, Expressed in CHO-S cells and purified on protein A; also called A530V/M567Y/S569T/T571E/D671E/L673M mutant of CocH3-Fc) EDDIIIATKNGKVRGMNLTVFGGTVTAFLGIPYAQPPLGRLRFKKPQSLTKWSDIWNATKYANSCCQNIDQSFPGFHGSEMWNPNTDLSEDCLYLNVWIPAPKPKNATVLIWIYGGGFQTGTSSLHVYDGKFLARVERVIVVSMNYRVGALGFLALPGNPEAPGNMGLFDQQLALQWVQKNIAAFGGNPKSVTLFGESSGAASVSLHLLSPGSHSLFTRAILQSGSANAPWAVTSLYEARNRTLNLAKLTGCSRENETEIIKCLRNKDPQEILLNEAFVVPYGTPLGVNFGPTVDGDFLTDMPDILLELGQFKKTQILVGVNKDEGTWFLVGGAPGFSKDNNSIITRKEFQEGLKIFFPGVSEFGKESILFHYTDWVDDQRPENYREALGDVVGDYNFICPALEFTKKFSEWGNNAFFYYFEHRSSKLPWPEWMGVMHGYEIEFVFGLPLERRDNYTKAEEILSRSIVKRWANFAKYGNPNETQNNSTSWPVFKSTEQKYLTLNTESTRIMTKLRAQQCRFWTSFFPKVVEPKSCDKTHTCPPCPAPELLGGPSVFLFPPKPKDTLYITREPEVTCVVVDVSHEDPEVKFNWYVDGVEVHNAKTKPREEQYNSTYRVVSVLTVLHQDWLNGKEYKCKVSNKALPAPIEKTISKAKGQPREPQVYTLPPSREEMTKNQVSLTCLVKGFYPSDIAVEWESNGQPENNYKTTPPVLDSDGSFFLYSKLTVDKSRWQQGNVFSCSVMHEALHNHYTQKSLSLSPGK | 43 | ~100 | 43 |
| CocH3G-Fc(M6) (Fc fusion) EDDIIIATKNGKVRGMNLTVFGGTVTAFLGIPYAQPPLGRLRFKKPQSLTKWSDIWNATKYANSCCQNIDQSFPGFHGSEMWNPNTDLSEDCLYLNVWIPAPKPKNATVLIWIYGGGFQTGTSSLHVYDGKFLARVERVIVVSMNYRVGALGFLALPGNPEAPGNMGLFDQQLALQWVQKNIAAFGGNPKSVTLFGESSGAASVSLHLLSPGSHSLFTRAILQSGSANAPWAVTSLYEARNRTLNLAKLTGCSRENETEIIKCLRNKDPQEILLNEAFVVPYGTPLGVNFGPTVDGDFLTDMPDILLELGQFKKTQILVGVNKDEGTWFLVGGAPGFSKDNNSIITRKEFQEGLKIFFPGVSEFGKESILFHYTDWVDDQRPENYREALGDVVGDYNFICPALEFTKKFSEWGNNAFFYYFEHRSSKLPWPEWMGVMHGYEIEFVFGLPLERRDNYTKAEEILSRSIVKRWANFAKYGNPNETQNNSTSWPVFKSTEQKYLTLNTESTRIMTKLRAQQCRFWGSFFPKVVEPKSCDKTHTCPPCPAPELLGGPSVFLFPPKPKDTLYITREPEVTCVVVDVSHEDPEVKFNWYVDGVEVHNAKTKPREEQYNSTYRVVSVLTVLHQDWLNGKEYKCKVSNKALPAPIEKTISKAKGQPREPQVYTLPPSREEMTKNQVSLTCLVKGFYPSDIAVEWESNGQPENNYKTTPPVLDSDGSFFLYSKLTVDKSRWQQGNVFSCSVMHEALHNHYTQKSLSLSPGK | 40 |  |  |
| CocH5G-Fc(M6) (Fc fusion) EDDIIIATKNGKVRGMNLTVFGGTVTAFLGIPYAQPPLGRLRFKKPQSLTKWSDIWNATKYANSCCQNIDQSFPGFHGSEMWNPNTDLSEDCLYLNVWIPAPKPKNATVLIWIYGGGFQTGTSSLHVYDGKFLARVERVIVVSMNYRVGALGFLALPGNPEAPGNMGLFDQQLALQWVQKNIAAFGGNPKSVTLFGESSGAASVSLHLLSPGSHSLFTRAILQSGSANAPWAVTSLYEARNRTLNLAKLTGCSRENETEIIKCLRNKDPQEILLNEAFVVPYGTALGVNFGPTVDGDFLTDMPDILLELGQFKKTQILVGVNKDEGTWFLVGGAPGFSKDNNSIITRKEFQEGLKIFFPGVSEFGKESILFHYTDWVDDQRPENYREALGDVVGDYNFICPALEFTKKFSEWGNNAFFYYFEHRSSKLPWPEWMGVMHGYEIEFVFGLPLERRDNYTKAEEILSRSIVKRWANFAKYGNPNETQNNSTSWPVFKSTEQKYLTLNTESTRIMTKLRAQQCRFWGSFFPKVVEPKSCDKTHTCPPCPAPELLGGPSVFLFPPKPKDTLYITREPEVTCVVVDVSHEDPEVKFNWYVDGVEVHNAKTKPREEQYNSTYRVVSVLTVLHQDWLNGKEYKCKVSNKALPAPIEKTISKAKGQPREPQVYTLPPSREEMTKNQVSLTCLVKGFYPSDIAVEWESNGQPENNYKTTPPVLDSDGSFFLYSKLTVDKSRWQQGNVFSCSVMHEALHNHYTQKSLSLSPGK | 40 |  |  |
